Km and kcat data for two proteins are collected here from article PMC11675717, “Evolutionary Adaptations in Biliverdin Reductase B: Insights into Coenzyme Dynamics and Catalytic Efficiency” (International Journal of Molecular Sciences, 2024).

Substrate in this series: Cc1cc2nc3c(=O)[nH]c(=O)nc-3n(C[C@H](O)[C@H](O)[C@H](O)COP(=O)(O)OP(=O)(O)OC[C@H]3O[C@@H](n4cnc5c(N)ncnc54)[C@H](O)[C@@H]3O)c2cc1C
As to the kind of experiment: purified protein. Format: biochemical, Homo sapiens. The conditions noted are these: co-substrate NADPH 400 µM; enzyme 20 µM.

B1: human BLVRB (Homo sapiens) (protein)
chain: AVKKIAIFGATGQTGLTTLAQAVQAGYEVTVLVRDSSRLPSEGPRPAHVVVGDVLQAADVDKTVAGQDAVIVLLGTRNDLSPTTVMSEGARNIVAAMKAHGVDKVVACTSAFLLWDPTKVPPRLQAVTDDHIRMHKVLRESGLKYVAVMPPHIGDQPLTGAYTVTLDGRGPSRVISKHDLGHFMLRCLTTDEYDGHSTYPSHQYQ
notes: pET21
One may read the Km as the substrate concentration at which the rate is half of its maximum. As usually defined, the kcat is the maximal rate divided by the concentration of active sites. With B1, the Km is 242 ± 36 µM and the kcat amounted to 0.16 ± 0.03 s⁻¹.

B2: human BLVRB (Homo sapiens; T164S) (protein)
chain: AVKKIAIFGATGQTGLTTLAQAVQAGYEVTVLVRDSSRLPSEGPRPAHVVVGDVLQAADVDKTVAGQDAVIVLLGTRNDLSPTTVMSEGARNIVAAMKAHGVDKVVACTSAFLLWDPTKVPPRLQAVTDDHIRMHKVLRESGLKYVAVMPPHIGDQPLTGAYSVTLDGRGPSRVISKHDLGHFMLRCLTTDEYDGHSTYPSHQYQ
notes: pET21
On to B2, for which the Km came to 171 ± 33 µM and the kcat turned out to be 0.1 ± 0.03 s⁻¹.
